Experimental findings from article PMC5691035 (Nature Communications, 2017) are described below.

One may read the Kd as the equilibrium constant for the complex coming apart. Lower therefore signals a tighter complex. As usually defined, the koff is a measure of how fast the partners let go of each other. High values mean fast dissociation, low ones slow dissociation. For orientation: kon means the rate constant with which the complex forms.

Positions count from the first letter of the chain named.

The labels stand for the following.
B1: 1269 Fab (Fab, V domains shown)
VH: EVQLVESGGGLVQSGGSLRLSCAASGFTFSRNAMNWVRQAPGKGLEWVSTISGSGDSTYYADSVKGRFTISRDNSKNTLYLQVNSLRAEDTAVYYCAKGDYYFDSGSYSFGMDVWGQGTTVTVSS
VL: EIVLTQSPGTLSLSPGERATLSCRTSQSVSSSYLAWYQQKPGQAPRLLMYGASSRATGIPDRFSGSGSGTDFTLTISRLEPEDFAVYYCQQYGNSFGQGTRLEIK
notes: also called mAb 1269; source: HEK293F, transient, purified (KappaSelect or LambdaSelect, MonoS, SEC)
B2: 1269 IgG (antibody, V domains shown)
VH: B1 VH
VL: B1 VL
notes: IgG1; also called mAb 1269; source: HEK293, transient, purified from conditioned medium (Protein A); synthesized by LakePharma
B3: 1260 Fab (Fab, V domains shown)
VH: QVQLVQSGAEVKKPGASVKVSCRASGYIFTSYGFSWVRQAPGQGLEWMGWISAYNGNTDYSQKLQGRVTMTTDTSTNTVYMELRTLQSDDTAVYYCARDRGDRLYYYYYYGMDVWGQGTTVTVSS
VL: not shown
notes: also called mAb 1260; source: HEK293F, transient, purified (KappaSelect or LambdaSelect, MonoS, SEC)
B4: 1245 Fab (Fab, V domains shown)
VH: QVQLVQSGGEVKKPGASVKVSCKASGYTFTSYGISWVRQAPGQGLEWMGWISAYNGNRKYAQKVQGRVSMTIDTHTSTANMELRSLRSDDTAVYYCAKDRGDGDYRYYYYGMDVWGQGTTVTVSS
VL: not shown
notes: also called mAb 1245; source: HEK293F, transient, purified (KappaSelect or LambdaSelect, MonoS, SEC)
B5: 1245 IgG (antibody, V domains shown)
VH: B4 VH
VL: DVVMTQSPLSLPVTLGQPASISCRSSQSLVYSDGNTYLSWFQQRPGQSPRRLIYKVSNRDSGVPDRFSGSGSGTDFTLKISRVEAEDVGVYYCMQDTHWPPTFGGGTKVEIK
notes: IgG1; also called mAb 1245; source: HEK293, transient, purified from conditioned medium (Protein A); synthesized by LakePharma
B6: 1262 Fab (Fab, V domains shown)
VH: QVQLQESGPGLVKPSGTLSLTCAVSGGSISSSHWWSWVRQPPGKGLEWVGEISLSGSTHYGPSLKSRVSISLDKSMNHFSLRLSSVTAADTAVYYCARESRFYGAYFDYWGQGTLVTVSS
VL: DIQLTQSPSFLSASVGDRVTITCWASQGINSYLAWYQQKPGKTPKLLIYAASTLQSGVPSRFSGSGSGTEFTLTISSLQPEDFATYYCQQLNSYPCSFGQGTTLEIK
notes: also called mAb 1262; source: HEK293F, transient, purified (KappaSelect or LambdaSelect, MonoS, SEC)
B7: 1268 Fab (Fab, V domains shown)
VH: EVQLVESGGGLVKPGGSLRLSCAASGFTFSRYSMNWVRQAPGKGLEWVSSISSRSSYKYYVDSVKGRFTISRDNAKNSLYLQMNSLRAEDTAVYYCARDDYGSGSYYYNWLDPWGQGTLVTVSS
VL: B6 VL with N30S, Y32F, T43A, Q55E, C96R, S97T, T103K, L104V
notes: also called mAb 1268; source: HEK293F, transient, purified (KappaSelect or LambdaSelect, MonoS, SEC)
B8: 1267 Fab (Fab, V domains shown)
VH: QVQLQQSGPGLVKPSQTLSLTCAISGDSVSSNSAAWNWIRQSPSRGLEWLGRTYYRSKWYNDYAVSVRGRITINPDTSKNHFSLQLNSVTPEDTAVYFCARDLMTNSGWYVYFDCWGQGTLVTVSS
VL: SYELTQPPSVSVSPGQSARITCSGDALPMKYAYWYQQKSGQAPVLVIYEDSKRPSGIPERFSGSSSGTMATLTISGAQVEDEADYYCFSTDSSGNHRVFGGGTKLT
notes: also called mAb 1267; source: HEK293F, transient, purified (KappaSelect or LambdaSelect, MonoS, SEC)
B9: 1266 Fab (Fab, V domains shown)
VH: QVQLQQSGPGLVKPSQTLSLTCAISGDSVSSNSAAWNWIRQSPSRGLEWLGRTYYRSKWYNDYAVSVKSRITINADTSKNQFSLQLNSVTPEDTAVYYCVRDLLGSSGWYVFFDNWGQGTLVTVSS
VL: B8 VL
notes: also called mAb 1266; source: HEK293F, transient, purified (KappaSelect or LambdaSelect, MonoS, SEC)
B10: 1202 Fab (Fab, V domains shown)
VH: QVQLVESGGDLVKPGGSLRLSCAASGFTFSDHYMNWIRQAPGKGLEWVSYISSSGSTIYYSDSVKGRFTISRDNAKYLLSLQMNSLRAEDTAVYFCARDPMVRGFHDAFDIWGQGTMVTVSS
VL: SYELTQPPSVSVSPGQTASITCSGDKLGDKYASWYQQKPGQSPVLVIFQDNKRPSGIPERFSGSNSGNTATLTISETQAMDEADYYCQAWDISTAVFGTGTNVT
notes: also called mAb 1202; source: HEK293F, transient, purified (KappaSelect or LambdaSelect, MonoS, SEC)
B11: 1269 Fab (Fab, V domains shown)
VH: B1 VH
VL: B1 VL
notes: source: HEK293F, transiently expressed, purified (KappaSelect or LambdaSelect, MonoS, Superdex 200)
B12: 1260 Fab (Fab, V domains shown)
VH: B3 VH
VL: not shown
notes: as for B11
B13: 1245 Fab (Fab, V domains shown)
VH: B4 VH
VL: not shown
notes: as for B11
B14: 1262 Fab (Fab, V domains shown)
VH: B6 VH
VL: B6 VL
notes: as for B11
B15: 1268 Fab (Fab, V domains shown)
VH: B7 VH
VL: B6 VL with N30S, Y32F, T43A, Q55E, C96R, S97T, T103K, L104V
notes: as for B11
B16: 1266 Fab (Fab, V domains shown)
VH: B9 VH
VL: B8 VL
notes: source: HEK293F, transiently expressed, purified (LambdaSelect or KappaSelect, MonoS, Superdex 200)
B17: 1267 Fab (Fab, V domains shown)
VH: B8 VH
VL: B8 VL
notes: as for B16
B18: 1202 Fab (Fab, V domains shown)
VH: B10 VH
VL: B10 VL
notes: as for B16
B19: 1276 Fab (Fab, V domains shown)
VH: not shown
VL: SYVLTQPPSVSVAPGKTAKITCGGNNIGSKSVHWYQQKPGQAPVLVMYYDFDRPSGIPERFSGSNSGNTATLTISRVEAEDEADYYCQVWDSDRYWVFGGGTKLTVL
notes: as for B16
B20: 1190 Fab (Fab, V domains shown)
VH: not shown
VL: SYVLTQPPSVSVAPGQTARITCGGSNIGSKSVHWYQQKPGQTPMLVIYYDYDRPSGIPERFSGSNSGSTATLTISRVEAGDEADYYCQVWDSSSDHVWVFGGGTTLTVL
notes: as for B16

Sequence of Pfs25, monomeric, produced in Nicotiana benthamiana (Plasmodium falciparum (P13829 22-193): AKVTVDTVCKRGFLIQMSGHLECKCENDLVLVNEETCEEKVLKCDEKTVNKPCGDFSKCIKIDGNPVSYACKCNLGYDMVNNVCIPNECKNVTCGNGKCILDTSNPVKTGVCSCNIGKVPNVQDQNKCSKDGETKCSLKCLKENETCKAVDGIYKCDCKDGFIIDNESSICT

The target in one test is Pfs25, monomeric, Nicotiana benthamiana-produced (Plasmodium falciparum (NF54; identical …, UniProt P13829). Nature of the test: BLI. The following applies: both partners purified.
Sequence of Pfs25, monomeric, Nicotiana benthamiana-produced (Plasmodium falciparum (P13829 17-196): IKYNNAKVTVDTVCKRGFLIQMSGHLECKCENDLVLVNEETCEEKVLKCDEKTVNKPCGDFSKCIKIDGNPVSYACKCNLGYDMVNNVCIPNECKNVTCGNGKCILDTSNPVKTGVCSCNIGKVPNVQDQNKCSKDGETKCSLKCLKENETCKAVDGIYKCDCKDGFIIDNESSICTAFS
Take B1: binding was put at a Kd of 3.7 nM.

For the molecule B2, the Kd was less than 0.001 nM.

Turning to B3, the binding result is “binds”.

As to B4, the Kd worked out at 31 nM.

With B5, the Kd is less than 0.001 nM.

In the case of B6, the binding result is listed as “binds”.

On to B7, for which the binding result is recorded as “binds”.

In the case of B8, the binding result is “binds”.

Consider B9, for which the binding result is on record as “binds”.

For B10, the binding result is reported as “binds”.

A further test addresses Pfs25, monomeric, produced in Nicotiana benthamiana (Plasmodium falciparum (NF54; identical …, UniProt P13829). Description: BLI. To be noted: both partners purified.
Molecule B11 registered a koff of 0.00084 s⁻¹ and a kon of 220000 M⁻¹ s⁻¹.

For B12, the Kd is 41 nM, the koff was determined as 0.00093 s⁻¹ and the kon came out at 23000 M⁻¹ s⁻¹.

For B13, the koff amounted to 0.00038 s⁻¹ and the kon is 22000 M⁻¹ s⁻¹.

B14 gave a Kd of 12 nM, a koff of 0.0011 s⁻¹ and a kon of 80000 M⁻¹ s⁻¹.

As to B15, binding was characterised by a dissociation constant (Kd) of 67 nM, the koff was found to be 0.006 s⁻¹ and the kon turned out to be 93000 M⁻¹ s⁻¹.

On to B16, for which binding was characterised by a dissociation constant (Kd) of 31 nM, the koff was 0.012 s⁻¹ and the kon came out at 420000 M⁻¹ s⁻¹.

Molecule B17 yielded a Kd of 7.9 nM, a koff of 0.0032 s⁻¹ and a kon of 430000 M⁻¹ s⁻¹.

In turn, B18 displayed a Kd of 35 nM, a koff of 0.016 s⁻¹ and an on-rate constant (kon) of 480000 M⁻¹ s⁻¹.

The molecule B19 came in with a koff of 0.0037 s⁻¹ and an on-rate (kon) of 210000 M⁻¹ s⁻¹.

Regarding B20, the koff came to 0.0021 s⁻¹ and the kon came to 300000 M⁻¹ s⁻¹.
